Test results: IntAct's records for PubMed 35512704

B1: Mothers against decapentaplegic homolog 4 (Homo sapiens), Q13485 (parent)
chain: MDNMSITNTPTSNDACLSIVHSLMCHRQGGESETFAKRAIESLVKKLKEKKDELDSLITAITTNGAHPSKCVTIQRTLDGRLQVAGRKGFPHVIYARLWRWPDLHKNELKHVKYCQYAFDLKCDSVCVNPYHYERVVSPGIDLSGLTLQSNAPSSMMVKDEYVHDFEGQPSLSTEGHSIQTIQHPPSNRASTETYSTPALLAPSESNATSTANFPNIPVASTSQPASILGGSHSEGLLQIASGPQPGQQQNGFTGQPATYHHNSTTTWTGSRTAPYTPNLPHHQNGHLQHHPPMPPHPGHYWPVHNELAFQPPISNHPAPEYWCSIAYFEMDVQVGETFKVPSSCPIVTVDGYVDPSGGDRFCLGQLSNVHRTEAIERARLHIGKGVQLECKGEGDVWVRCLSDHAVFVQSYYLDREAGRAPGDAVHKIYPSAYIKVFDLRQCHRQMQQQAATAQAAAAAQAAAVAGNIPGPGSVGGIAPAISLSAAAGIGVDDLRRLCILRMSFVKGWGPDYPRQSIKETPCWIEIHLHRALQLLDEVLHTMPIADPQPLD
partner: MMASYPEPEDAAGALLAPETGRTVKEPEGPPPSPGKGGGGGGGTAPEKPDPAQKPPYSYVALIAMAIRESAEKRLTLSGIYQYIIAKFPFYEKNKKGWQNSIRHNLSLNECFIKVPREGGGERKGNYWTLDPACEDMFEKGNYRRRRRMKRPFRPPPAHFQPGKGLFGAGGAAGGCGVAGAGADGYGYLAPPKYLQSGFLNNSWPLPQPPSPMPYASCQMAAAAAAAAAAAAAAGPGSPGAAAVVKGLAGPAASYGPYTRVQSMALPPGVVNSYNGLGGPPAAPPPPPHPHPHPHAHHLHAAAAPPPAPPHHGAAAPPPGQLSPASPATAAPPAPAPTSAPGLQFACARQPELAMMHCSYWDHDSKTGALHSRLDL
B2: Mothers against decapentaplegic homolog 4 (Homo sapiens), Q13485 (parent)
chain: B1 chain
partner: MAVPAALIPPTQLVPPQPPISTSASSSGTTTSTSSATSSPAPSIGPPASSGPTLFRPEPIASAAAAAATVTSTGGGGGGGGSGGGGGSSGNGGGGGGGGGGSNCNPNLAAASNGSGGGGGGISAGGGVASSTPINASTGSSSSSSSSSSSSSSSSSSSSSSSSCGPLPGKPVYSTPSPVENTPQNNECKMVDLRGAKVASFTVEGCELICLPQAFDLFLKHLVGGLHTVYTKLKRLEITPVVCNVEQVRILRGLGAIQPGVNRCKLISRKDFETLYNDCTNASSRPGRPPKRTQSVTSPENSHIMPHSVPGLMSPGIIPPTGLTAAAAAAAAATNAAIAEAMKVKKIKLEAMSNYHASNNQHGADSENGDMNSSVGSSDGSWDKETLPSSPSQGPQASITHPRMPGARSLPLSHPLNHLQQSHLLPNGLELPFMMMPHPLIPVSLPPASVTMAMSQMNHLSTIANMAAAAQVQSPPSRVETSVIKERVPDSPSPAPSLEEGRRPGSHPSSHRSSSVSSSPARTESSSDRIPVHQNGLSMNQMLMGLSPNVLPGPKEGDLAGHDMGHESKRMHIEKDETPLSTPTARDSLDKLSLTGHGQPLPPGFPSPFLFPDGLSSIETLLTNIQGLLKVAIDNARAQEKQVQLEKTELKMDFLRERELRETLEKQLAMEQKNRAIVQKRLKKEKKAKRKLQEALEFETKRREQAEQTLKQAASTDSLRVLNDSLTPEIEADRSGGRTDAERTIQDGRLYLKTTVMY
B3: Mothers against decapentaplegic homolog 4 (Homo sapiens), Q13485 (parent)
chain: B1 chain
partner: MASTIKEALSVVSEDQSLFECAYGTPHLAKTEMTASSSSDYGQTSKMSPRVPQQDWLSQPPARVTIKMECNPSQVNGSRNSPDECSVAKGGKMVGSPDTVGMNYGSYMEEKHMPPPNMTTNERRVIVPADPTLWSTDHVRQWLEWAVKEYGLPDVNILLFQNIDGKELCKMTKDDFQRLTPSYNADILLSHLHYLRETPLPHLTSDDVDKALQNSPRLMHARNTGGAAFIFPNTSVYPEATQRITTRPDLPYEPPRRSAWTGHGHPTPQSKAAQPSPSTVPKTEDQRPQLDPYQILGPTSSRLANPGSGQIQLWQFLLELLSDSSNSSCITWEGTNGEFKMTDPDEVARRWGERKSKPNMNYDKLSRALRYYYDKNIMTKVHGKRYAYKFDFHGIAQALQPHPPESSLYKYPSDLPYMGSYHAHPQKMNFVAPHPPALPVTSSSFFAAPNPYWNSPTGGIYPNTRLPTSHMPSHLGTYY
B4: Mothers against decapentaplegic homolog 4 (Homo sapiens), Q13485 (parent)
chain: B1 chain
partner: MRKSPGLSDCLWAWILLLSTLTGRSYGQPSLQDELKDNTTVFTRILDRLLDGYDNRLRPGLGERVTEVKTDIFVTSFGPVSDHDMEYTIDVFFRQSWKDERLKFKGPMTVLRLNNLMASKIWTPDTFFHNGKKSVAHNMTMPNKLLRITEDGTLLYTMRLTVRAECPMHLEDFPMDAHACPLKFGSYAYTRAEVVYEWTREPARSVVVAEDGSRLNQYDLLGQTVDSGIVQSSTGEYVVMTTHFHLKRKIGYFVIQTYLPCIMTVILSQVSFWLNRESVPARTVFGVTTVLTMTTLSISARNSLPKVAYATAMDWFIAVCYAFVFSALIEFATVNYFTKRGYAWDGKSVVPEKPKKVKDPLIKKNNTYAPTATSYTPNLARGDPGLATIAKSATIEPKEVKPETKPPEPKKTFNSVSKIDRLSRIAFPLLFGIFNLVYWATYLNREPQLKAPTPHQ
B5: Mothers against decapentaplegic homolog 4 (Homo sapiens), Q13485 (parent)
chain: B1 chain
partner: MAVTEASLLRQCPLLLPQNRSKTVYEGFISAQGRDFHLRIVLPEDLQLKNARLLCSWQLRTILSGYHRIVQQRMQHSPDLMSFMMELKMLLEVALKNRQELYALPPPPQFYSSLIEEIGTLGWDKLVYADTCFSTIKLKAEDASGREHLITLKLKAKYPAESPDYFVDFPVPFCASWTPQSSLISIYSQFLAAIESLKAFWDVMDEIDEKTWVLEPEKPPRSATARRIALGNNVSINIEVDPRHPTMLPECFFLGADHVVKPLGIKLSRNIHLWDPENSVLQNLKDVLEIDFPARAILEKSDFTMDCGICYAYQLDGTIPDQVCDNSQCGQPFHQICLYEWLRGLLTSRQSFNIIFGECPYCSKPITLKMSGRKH
B6: Mothers against decapentaplegic homolog 4 (Homo sapiens), Q13485 (parent)
chain: B1 chain
partner: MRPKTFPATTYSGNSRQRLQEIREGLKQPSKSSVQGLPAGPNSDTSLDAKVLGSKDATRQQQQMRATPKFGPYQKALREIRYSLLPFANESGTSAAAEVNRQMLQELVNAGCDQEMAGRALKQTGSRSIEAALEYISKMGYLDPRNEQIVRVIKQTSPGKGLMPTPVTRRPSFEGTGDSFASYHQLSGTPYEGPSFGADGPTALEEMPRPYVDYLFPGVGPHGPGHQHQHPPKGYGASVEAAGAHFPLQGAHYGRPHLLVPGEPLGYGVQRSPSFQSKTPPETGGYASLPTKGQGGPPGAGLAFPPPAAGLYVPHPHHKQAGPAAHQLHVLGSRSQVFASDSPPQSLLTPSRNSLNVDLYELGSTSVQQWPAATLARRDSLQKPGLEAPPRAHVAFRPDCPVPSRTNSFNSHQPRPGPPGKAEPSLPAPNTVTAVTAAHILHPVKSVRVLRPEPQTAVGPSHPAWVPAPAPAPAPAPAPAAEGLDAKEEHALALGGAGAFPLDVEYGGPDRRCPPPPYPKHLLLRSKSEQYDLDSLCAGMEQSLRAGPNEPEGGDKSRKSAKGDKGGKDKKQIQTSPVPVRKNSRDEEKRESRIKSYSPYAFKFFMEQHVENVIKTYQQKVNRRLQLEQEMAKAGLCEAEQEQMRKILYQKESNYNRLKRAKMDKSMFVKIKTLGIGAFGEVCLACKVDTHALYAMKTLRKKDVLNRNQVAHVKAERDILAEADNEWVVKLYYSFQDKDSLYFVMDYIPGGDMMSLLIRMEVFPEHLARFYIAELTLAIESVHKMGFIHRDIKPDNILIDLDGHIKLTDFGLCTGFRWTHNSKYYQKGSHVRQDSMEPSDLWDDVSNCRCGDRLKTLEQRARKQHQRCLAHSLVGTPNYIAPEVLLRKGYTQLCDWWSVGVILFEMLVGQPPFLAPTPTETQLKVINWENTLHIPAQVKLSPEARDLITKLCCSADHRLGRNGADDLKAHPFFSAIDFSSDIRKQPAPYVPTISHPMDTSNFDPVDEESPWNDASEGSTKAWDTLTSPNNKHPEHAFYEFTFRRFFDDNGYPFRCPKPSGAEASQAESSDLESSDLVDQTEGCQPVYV
B7: Mothers against decapentaplegic homolog 4 (Homo sapiens), Q13485 (parent)
chain: B1 chain
partner: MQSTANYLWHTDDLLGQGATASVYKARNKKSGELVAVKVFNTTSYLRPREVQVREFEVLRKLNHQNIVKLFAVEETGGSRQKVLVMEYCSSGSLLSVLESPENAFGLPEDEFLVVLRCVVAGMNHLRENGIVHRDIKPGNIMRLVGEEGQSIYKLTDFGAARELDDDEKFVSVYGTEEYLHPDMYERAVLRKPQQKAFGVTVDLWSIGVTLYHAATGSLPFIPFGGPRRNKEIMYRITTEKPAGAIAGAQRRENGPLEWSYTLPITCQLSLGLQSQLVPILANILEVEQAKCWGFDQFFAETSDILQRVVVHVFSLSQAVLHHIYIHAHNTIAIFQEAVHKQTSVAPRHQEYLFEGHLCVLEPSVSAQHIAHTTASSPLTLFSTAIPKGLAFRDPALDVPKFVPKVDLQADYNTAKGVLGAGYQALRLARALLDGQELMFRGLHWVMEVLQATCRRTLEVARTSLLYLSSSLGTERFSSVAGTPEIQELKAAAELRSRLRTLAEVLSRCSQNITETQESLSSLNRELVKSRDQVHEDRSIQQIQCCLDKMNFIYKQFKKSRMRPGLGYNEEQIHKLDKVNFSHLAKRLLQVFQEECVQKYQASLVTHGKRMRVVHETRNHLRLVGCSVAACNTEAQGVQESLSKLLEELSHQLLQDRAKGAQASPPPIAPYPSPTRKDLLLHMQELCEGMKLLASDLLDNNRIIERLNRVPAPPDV

Variants of: B1
Conditions: with foxl2_human FOXL2, P58012

Question: G386D was tested. Which “effect of a mutation on the interaction” value did it give?
Answer: with no effect

Variants of: B2
Conditions: with dach1_human DACH1, Q9UI36

Question: R361C was tested. Which “effect of a mutation on the interaction” value did it give?
Answer: with no effect

Variants of: B2
Conditions: with dach1_human DACH1, Q9UI36
Remark: another data set of the same source

Question: For R361H, which “effect of a mutation on the interaction” value is on record?
Answer: with no effect

Variants of: B2
Conditions: with dach1_human DACH1, Q9UI36
Remark: another data set of the same source

Question: Which “effect of a mutation on the interaction” value does the source give for D351H here?
Answer: with no effect

Variants of: B2
Conditions: with dach1_human DACH1, Q9UI36
Remark: another data set of the same source

Question: For G386D, which “effect of a mutation on the interaction” value is on record?
Answer: with no effect

Variants of: B3
Conditions: with erg_human ERG

Question: Which “effect of a mutation on the interaction” value does the source give for R361H here?
Answer: with no effect

Variants of: B3
Conditions: with erg_human ERG
Remark: another data set of the same source

Question: With R361C as the variant, how does the “effect of a mutation on the interaction” value read?
Answer: with no effect

Variants of: B3
Conditions: with erg_human ERG
Remark: another data set of the same source

Question: With G386D as the variant, how does the “effect of a mutation on the interaction” value read?
Answer: with no effect

Variants of: B3
Conditions: with erg_human ERG
Remark: another data set of the same source

Question: For D351H, which “effect of a mutation on the interaction” value is on record?
Answer: with no effect

Variants of: B4
Conditions: with gbra1_human GABRA1, P14867

Question: Which “effect of a mutation on the interaction” value does the source give for D351H here?
Answer: with no effect

Variants of: B4
Conditions: with gbra1_human GABRA1, P14867
Remark: another data set of the same source

Question: How did the “effect of a mutation on the interaction” value turn out when R361H was run?
Answer: with no effect

Variants of: B4
Conditions: with gbra1_human GABRA1, P14867
Remark: another data set of the same source

Question: R361C was tested. Which “effect of a mutation on the interaction” value did it give?
Answer: with no effect

Variants of: B4
Conditions: with gbra1_human GABRA1, P14867
Remark: another data set of the same source

Question: G386D was tested. Which “effect of a mutation on the interaction” value did it give?
Answer: with no effect

Variants of: B5
Conditions: with fancl_human FANCL

Question: How did the “effect of a mutation on the interaction” value turn out when G386D was run?
Answer: with no effect

Variants of: B5
Conditions: with fancl_human FANCL
Remark: another data set of the same source

Question: G386D was tested. Which “effect of a mutation on the interaction” value did it give?
Answer: increasing interaction strength

Variants of: B5
Conditions: with fancl_human FANCL
Remark: another data set of the same source

Question: How did the “effect of a mutation on the interaction” value turn out when R361C was run?
Answer: with no effect

Variants of: B5
Conditions: with fancl_human FANCL
Remark: another data set of the same source

Question: With R361H as the variant, how does the “effect of a mutation on the interaction” value read?
Answer: with no effect

Variants of: B5
Conditions: with fancl_human FANCL
Remark: another data set of the same source

Question: With D351H as the variant, how does the “effect of a mutation on the interaction” value read?
Answer: with no effect

Variants of: B6
Conditions: with lats2_human LATS2, Q9NRM7

Question: Which “effect of a mutation on the interaction” value does the source give for G386D here?
Answer: with no effect

Variants of: B6
Conditions: with lats2_human LATS2, Q9NRM7
Remark: another data set of the same source

Question: For R361H, which “effect of a mutation on the interaction” value is on record?
Answer: with no effect

Variants of: B6
Conditions: with lats2_human LATS2, Q9NRM7
Remark: another data set of the same source

Question: With R361C as the variant, how does the “effect of a mutation on the interaction” value read?
Answer: with no effect

Variants of: B6
Conditions: with lats2_human LATS2, Q9NRM7
Remark: another data set of the same source

Question: With D351H as the variant, how does the “effect of a mutation on the interaction” value read?
Answer: with no effect

Variants of: B7
Conditions: with ikke_human IKBKE

Question: G386D was tested. Which “effect of a mutation on the interaction” value did it give?
Answer: with no effect

Variants of: B7
Conditions: with ikke_human IKBKE
Remark: another data set of the same source

Question: With D351H as the variant, how does the “effect of a mutation on the interaction” value read?
Answer: with no effect
